Assays:
[1] = target: T1, HER2/neu on the surface of target cells (N87, JIMT-1, MCF-7, MDA-MB231) (UniProt P04626 23-1255, limits assumed); test: flow cytometry on N87 gastric cancer cells, anti-hFc APC MFI
T1 construct: whole, on cells

[2] = target: T2, CD137 on the surface of cells (activated human T cells; engineered CHO cells) (human, UniProt Q07011 24-255); test: flow cytometry on activated pan T cells gated CD8, anti-hFc APC MFI
T2 construct: whole, on cells; also called human CD137; cell surface expressed CD137
T2 sequence (Q07011 24-255, change not shown): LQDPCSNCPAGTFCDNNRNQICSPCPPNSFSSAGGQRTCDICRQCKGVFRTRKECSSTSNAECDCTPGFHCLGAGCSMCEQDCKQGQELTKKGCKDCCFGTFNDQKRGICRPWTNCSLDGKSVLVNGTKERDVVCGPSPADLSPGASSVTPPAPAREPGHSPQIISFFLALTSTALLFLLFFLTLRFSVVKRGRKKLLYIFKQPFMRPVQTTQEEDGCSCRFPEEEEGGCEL

B1: DART-2 (bispecific antibody)
chain 1: not shown
chain 2: SYELTQPPSVSVSPGQTASITCSGDNIGDQYAHWYQQKPGQSPVLVIYQDKNRPSGIPERFSGSNSGNTATLTISGTQAMDEADYYCATYTGFGSLAVFGGGTKLTVLGGGSGGGGQVQLVQSGAEVKKPGASVKVSCKASGYTFTNYGMNWVRQAPGQGLEWMGWINTNIGEPTYTEEFKGRVTMTRDTSISTAYMELSRLRSDDTAVYYCARDDGYGNRVSYWGQGTLVTVSSGGCGGGKVAACKEKVAALKEKVAALKEKVAALKE
[1]
  EC50 (read off the curve): ~0.4 nM

B2: DART-1 (bispecific antibody)
chain 1: not shown
chain 2: EIVLTQSPATLSLSPGERATLSCRASQSVSSYLAWYQQKPGQAPRLLIYDASNRATGIPARFSGSGSGTDFTLTISSLEPEDFAVYYCQQRSNWPPALTFGGGTKVEIKGGGSGGGGQVQLVQSGAEVKKPGASVKVSCKASGYTFTNYGMNWVRQAPGQGLEWMGWINTNIGEPTYTEEFKGRVTMTRDTSISTAYMELSRLRSDDTAVYYCARDDGYGNRVSYWGQGTLVTVSSGGCGGGKVAACKEKVAALKEKVAALKEKVAALKE
[1]
  EC50 (read off the curve): ~0.4 nM
[2]
  EC50 (read off the curve): ~0.1 nM

B3: DART-F (bispecific antibody, human IgG1, kappa, L234A L235A)
heavy: QVQLVQSGAEVKKPGASVKVSCKASGYTFTNYGMNWVRQAPGQGLEWMGWINTNIGEPTYTEEFKGRVTMTRDTSISTAYMELSRLRSDDTAVYYCARDDGYGNRVSYWGQGTLVTVSSASTKGPSVFPLAPSSKSTSGGTAALGCLVKDYFPEPVTVSWNSGALTSGVHTFPAVLQSSGLYSLSSVVTVPSSSLGTQTYICNVNHKPSNTKVDKRVEPKSCDKTHTCPPCPAPEAAGGPSVFLFPPKPKDTLMISRTPEVTCVVVDVSHEDPEVKFNWYVDGVEVHNAKTKPREEQYNSTYRVVSVLTVLHQDWLNGKEYKCKVSNKALPAPIEKTISKAKGQPREPQVYTLPPSREEMTKNQVSLSCAVKGFYPSDIAVEWESNGQPENNYKTTPPVLDSDGSFFLVSKLTVDKSRWQQGNVFSCSVMHEALHNRYTQKSLSLSPGK
light: DIQMTQSPSSLSASVGDRVTITCKASQDISNYLSWFQQKPGKAPKTLIYRANRLQSGVPSRFSGSGSGTDFTLTISSLQPEDFATYYCLQHDEFPWTFGQGTKLEIKRTVAAPSVFIFPPSDEQLKSGTASVVCLLNNFYPREAKVQWKVDNALQSGNSQESVTEQDSKDSTYSLSSTLTLSKADYEKHKVYACEVTHQGLSSPVTKSFNRGEC
chain 1: QVQLVQSGAEVKKPGASVKVSCKASGYTFTNYGMNWVRQAPGQGLEWMGWINTNIGEPTYTEEFKGRVTMTRDTSISTAYMELSRLRSDDTAVYYCARDDGYGNRVSYWGQGTLVTVSSASTKGPSVFPLAPSSKSTSGGTAALGCLVKDYFPEPVTVSWNSGALTSGVHTFPAVLQSSGLYSLSSVVTVPSSSLGTQTYICNVNHKPSNTKVDKRVEPKSCDKTHTCPPCPAPEAAGGPSVFLFPPKPKDTLMISRTPEVTCVVVDVSHEDPEVKFNWYVDGVEVHNAKTKPREEQYNSTYRVVSVLTVLHQDWLNGKEYKCKVSNKALPAPIEKTISKAKGQPREPQVYTLPPSREEMTKNQVSLWCLVKGFYPSDIAVEWESNGQPENNYKTTPPVLDSDGSFFLYSKLTVDKSRWQQGNVFSCSVMHEALHNHYTQKSLSLSPGGGGSGGGSGGGDIQMTQTTSSLSASLGDRVTISCRASQDISNYLNWYQQKPDGTVKLLIYYTSRLHSGVPSRFSGSGSGTDYSLTISNLEQEDIATYFCQQGNTLPYTFGGGTKLEIKGGGSGGGGQVQLQQPGAELVRPGASVKLSCKASGYTFTSYWINWVKQRPGQGLEWIGNIYPSDSYTNYDQKFKDKATLTVDKSSSTAYMQLSSPTSEDSAVYYCTKSGEYGKIGYYAMDYWGQGTSVTVSSGGCGGGEVAALEKEVAALEKEVAALEKEVAALEK
chain 2: DIQMTQTTSSLSASLGDRVTISCRASQDISNYLNWYQQKPDGTVKLLIYYTSRLHSGVPSRFSGSGSGTDYSLTISNLEQEDIATYFCQQGNTLPYTFGGGTKLEIKGGGSGGGGQVQLQQPGAELVRPGASVKLSCKASGYTFTSYWINWVKQRPGQGLEWIGNIYPSDSYTNYDQKFKDKATLTVDKSSSTAYMQLSSPTSEDSAVYYCTKSGEYGKIGYYAMDYWGQGTSVTVSSGGCGGGKVAALKEKVAALKEKVAALKEKVAALKE
[1]
  EC50 (read off the curve): ~0.5 nM
[2]
  EC50 (read off the curve): ~0.5 nM

B4: DART-4 (bispecific antibody, human IgG1, kappa, L234A L235A)
heavy: QVQLVQSGAEVKKPGASVKVSCKASGYTFTNYGMNWVRQAPGQGLEWMGWINTNIGEPTYTEEFKGRVTMTRDTSISTAYMELSRLRSDDTAVYYCARDDGYGNRVSYWGQGTLVTVSSASTKGPSVFPLAPSSKSTSGGTAALGCLVKDYFPEPVTVSWNSGALTSGVHTFPAVLQSSGLYSLSSVVTVPSSSLGTQTYICNVNHKPSNTKVDKRVEPKSCDKTHTCPPCPAPEAAGGPSVFLFPPKPKDTLMISRTPEVTCVVVDVSHEDPEVKFNWYVDGVEVHNAKTKPREEQYNSTYRVVSVLTVLHQDWLNGKEYKCKVSNKALPAPIEKTISKAKGQPREPQVYTLPPSREEMTKNQVSLSCAVKGFYPSDIAVEWESNGQPENNYKTTPPVLDSDGSFFLVSKLTVDKSRWQQGNVFSCSVMHEALHNRYTQKSLSLSPGK
light: DIQMTQSPSSLSASVGDRVTITCKASQDISNYLSWFQQKPGKAPKTLIYRANRLQSGVPSRFSGSGSGTDFTLTISSLQPEDFATYYCLQHDEFPWTFGQGTKLEIKRTVAAPSVFIFPPSDEQLKSGTASVVCLLNNFYPREAKVQWKVDNALQSGNSQESVTEQDSKDSTYSLSSTLTLSKADYEKHKVYACEVTHQGLSSPVTKSFNRGEC
chain 1: QVQLVQSGAEVKKPGASVKVSCKASGYTFTNYGMNWVRQAPGQGLEWMGWINTNIGEPTYTEEFKGRVTMTRDTSISTAYMELSRLRSDDTAVYYCARDDGYGNRVSYWGQGTLVTVSSASTKGPSVFPLAPSSKSTSGGTAALGCLVKDYFPEPVTVSWNSGALTSGVHTFPAVLQSSGLYSLSSVVTVPSSSLGTQTYICNVNHKPSNTKVDKRVEPKSCDKTHTCPPCPAPEAAGGPSVFLFPPKPKDTLMISRTPEVTCVVVDVSHEDPEVKFNWYVDGVEVHNAKTKPREEQYNSTYRVVSVLTVLHQDWLNGKEYKCKVSNKALPAPIEKTISKAKGQPREPQVYTLPPSREEMTKNQVSLWCLVKGFYPSDIAVEWESNGQPENNYKTTPPVLDSDGSFFLYSKLTVDKSRWQQGNVFSCSVMHEALHNHYTQKSLSLSPGGGGSGGGSGGGEIVLTQSPATLSLSPGERATLSCRASQSVSSYLAWYQQKPGQAPRLLIYDASNRATGIPARFSGSGSGTDFTLTISSLEPEDFAVYYCQQRSNWPPALTFGGGTKVEIKGGGSGGGGQVQLQQWGAGLLKPSETLSLTCAVYGGSFSGYYWSWIRQSPEKGLEWIGEINHGGYVTYNPSLESRVTISVDTSKNQFSLKLSSVTAADTAVYYCARDYGPGNYDWYFDLWGRGTLVTVSSGGCGGGEVAALEKEVAALEKEVAALEKEVAALEK
chain 2: EIVLTQSPATLSLSPGERATLSCRASQSVSSYLAWYQQKPGQAPRLLIYDASNRATGIPARFSGSGSGTDFTLTISSLEPEDFAVYYCQQRSNWPPALTFGGGTKVEIKGGGSGGGGQVQLQQWGAGLLKPSETLSLTCAVYGGSFSGYYWSWIRQSPEKGLEWIGEINHGGYVTYNPSLESRVTISVDTSKNQFSLKLSSVTAADTAVYYCARDYGPGNYDWYFDLWGRGTLVTVSSGGCGGGKVAALKEKVAALKEKVAALKEKVAALKE
[2]
  EC50 (read off the curve): ~0.3 nM

B5: DART-5 (bispecific antibody, human IgG1, kappa, L234A L235A)
heavy: QVQLVQSGAEVKKPGASVKVSCKASGYTFTNYGMNWVRQAPGQGLEWMGWINTNIGEPTYTEEFKGRVTMTRDTSISTAYMELSRLRSDDTAVYYCARDDGYGNRVSYWGQGTLVTVSSASTKGPSVFPLAPSSKSTSGGTAALGCLVKDYFPEPVTVSWNSGALTSGVHTFPAVLQSSGLYSLSSVVTVPSSSLGTQTYICNVNHKPSNTKVDKRVEPKSCDKTHTCPPCPAPEAAGGPSVFLFPPKPKDTLMISRTPEVTCVVVDVSHEDPEVKFNWYVDGVEVHNAKTKPREEQYNSTYRVVSVLTVLHQDWLNGKEYKCKVSNKALPAPIEKTISKAKGQPREPQVYTLPPSREEMTKNQVSLSCAVKGFYPSDIAVEWESNGQPENNYKTTPPVLDSDGSFFLVSKLTVDKSRWQQGNVFSCSVMHEALHNRYTQKSLSLSPGK
light: DIQMTQSPSSLSASVGDRVTITCKASQDISNYLSWFQQKPGKAPKTLIYRANRLQSGVPSRFSGSGSGTDFTLTISSLQPEDFATYYCLQHDEFPWTFGQGTKLEIKRTVAAPSVFIFPPSDEQLKSGTASVVCLLNNFYPREAKVQWKVDNALQSGNSQESVTEQDSKDSTYSLSSTLTLSKADYEKHKVYACEVTHQGLSSPVTKSFNRGEC
chain 1: QVQLVQSGAEVKKPGASVKVSCKASGYTFTNYGMNWVRQAPGQGLEWMGWINTNIGEPTYTEEFKGRVTMTRDTSISTAYMELSRLRSDDTAVYYCARDDGYGNRVSYWGQGTLVTVSSASTKGPSVFPLAPSSKSTSGGTAALGCLVKDYFPEPVTVSWNSGALTSGVHTFPAVLQSSGLYSLSSVVTVPSSSLGTQTYICNVNHKPSNTKVDKRVEPKSCDKTHTCPPCPAPEAAGGPSVFLFPPKPKDTLMISRTPEVTCVVVDVSHEDPEVKFNWYVDGVEVHNAKTKPREEQYNSTYRVVSVLTVLHQDWLNGKEYKCKVSNKALPAPIEKTISKAKGQPREPQVYTLPPSREEMTKNQVSLWCLVKGFYPSDIAVEWESNGQPENNYKTTPPVLDSDGSFFLYSKLTVDKSRWQQGNVFSCSVMHEALHNHYTQKSLSLSPGGGGSGGGSGGGSYELTQPPSVSVSPGQTASITCSGDNIGDQYAHWYQQKPGQSPVLVIYQDKNRPSGIPERFSGSNSGNTATLTISGTQAMDEADYYCATYTGFGSLAVFGGGTKLTVLGGGSGGGGEVQLVQSGAEVKKPGESLRISCKGSGYSFSTYWISWVRQMPGKGLEWMGKIYPGDSYTNYSPSFQGQVTISADKSISTAYLQWSSLKASDTAMYYCARGYGIFDYWGQGTLVTVSSGGCGGGEVAALEKEVAALEKEVAALEKEVAALEK
chain 2: SYELTQPPSVSVSPGQTASITCSGDNIGDQYAHWYQQKPGQSPVLVIYQDKNRPSGIPERFSGSNSGNTATLTISGTQAMDEADYYCATYTGFGSLAVFGGGTKLTVLGGGSGGGGEVQLVQSGAEVKKPGESLRISCKGSGYSFSTYWISWVRQMPGKGLEWMGKIYPGDSYTNYSPSFQGQVTISADKSISTAYLQWSSLKASDTAMYYCARGYGIFDYWGQGTLVTVSSGGCGGGKVAALKEKVAALKEKVAALKEKVAALKE
[1]
  EC50 (read off the curve): ~0.5 nM

From US20220406376A1 (MacroGenics, published 2022)
